Measured values reported in patent US20190330323A1 (UCB, published 2019).

T1: BMP4/7 heterodimer (human, UniProt P12644 293-408; P18075 293-431)
T1 sequence (looked up) 1: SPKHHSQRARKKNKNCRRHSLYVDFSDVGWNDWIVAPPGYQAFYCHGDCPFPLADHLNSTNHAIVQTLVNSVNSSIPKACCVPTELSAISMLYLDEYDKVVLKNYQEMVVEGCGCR
T1 sequence (looked up) 2: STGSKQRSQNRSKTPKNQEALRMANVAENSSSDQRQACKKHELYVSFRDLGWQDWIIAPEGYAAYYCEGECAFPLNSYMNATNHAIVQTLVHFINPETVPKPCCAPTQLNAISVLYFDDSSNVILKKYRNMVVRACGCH

T2: mouse Gremlin (mouse, UniProt O70326 25-184)
T2 sequence (looked up): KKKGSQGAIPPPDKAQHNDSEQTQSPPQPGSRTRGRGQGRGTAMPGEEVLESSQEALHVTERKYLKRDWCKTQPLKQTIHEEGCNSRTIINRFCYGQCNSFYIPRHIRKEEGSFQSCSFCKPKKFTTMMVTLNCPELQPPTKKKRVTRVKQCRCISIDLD

B1: human Gremlin-1 (recombinant, full length) (ligand)
chain: KKKGSQGAIPPPDKAQHNDSEQTQSPQQPGSRNRGRGQGRGTAMPGEEVLESSQEALHVTERKYLKRDWCKTQPLKQTIHEEGCNSRTIINRFCYGQCNSFYIPRHIRKEEGSFQSCSFCKPKKFTTMMVTLNCPELQPPTKKKRVTRVKQCRCISIDLD
B2: Ab7326 (as tested in the screening assays of Example 5) (antibody, V domains shown)
VH: QVQLVESGAEVKKPGATVKISCKVSGYTFTDYYMHWVQQAPGKGLEWMGLVDPEDGETIYAEKFQGRVTITADTSTDTAYMELSSLRSEDTAVYYCATDARGSGSYYPNHFDYWGQGTLVTVSS
VL: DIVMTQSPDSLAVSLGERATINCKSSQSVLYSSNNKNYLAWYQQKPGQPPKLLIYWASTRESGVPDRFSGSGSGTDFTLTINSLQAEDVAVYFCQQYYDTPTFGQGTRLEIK
B3: truncated human Gremlin-1 (E. coli, refolded, N-terminal 6His-TEV tag) (ligand)
chain: MGSSHHHHHHSSGENLYFQGSAMPGEEVLESSQEALHVTERKYLKRDWCKTQPLKQTIHEEGCNSRTIINRFCYGQCNSFYIPRHIRKEEGSFQSCSFCKPKKFTTMMVTLNCPELQPPTKKKRVTRVKQCRCISIDLD

Columns and labels:
Test in all cases: cell-based or functional assay
[1] = biological target: T1, BMP4/7 heterodimer
[2] = biological target: B1
[3] = biological target: T2, mouse Gremlin
[4] = biological target: T1, BMP4/7 heterodimer; remark: listed apart in the source

Row | Binder | IC50, Geometric mean (nM), Hek-Id1 reporter gene assay, N = 2 [1] [nM] | IC50, restoration of BMP signalling, Hek-Id1 reporter gene assay [2] [nM] | IC50, restoration of BMP signalling, Hek-Id1 reporter gene assay [3] [nM] | IC50 (read off the curve) [B] [4] [nM]
1 | B1 | 1.6 |  |  | 
2 | B2 |  | 1.3 | 0.2 | 
3 | B3 | 1.7 |  |  | ~3
